From patent publication US20250059270A1 (SESEN BIO, published 2025)
Where a chain is given by its changes, count along the chain named. Blank lines part the entries; values can stand above or below the binder they belong to.

Tests used:
rat IL-6 = molecular target: T1, rat IL-6 (rat, UniProt P20607 25-211); experiment: monovalent affinity, method not stated
T1 construct: also called rodent IL-6
T1 sequence (looked up): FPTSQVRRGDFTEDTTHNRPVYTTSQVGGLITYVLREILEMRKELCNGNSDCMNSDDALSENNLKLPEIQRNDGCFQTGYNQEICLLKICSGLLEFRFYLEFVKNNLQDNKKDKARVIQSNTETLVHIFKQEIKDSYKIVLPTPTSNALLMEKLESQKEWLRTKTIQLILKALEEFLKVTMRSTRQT

dog IL-6 = molecular target: T2, dog IL-6 (dog, UniProt P41323 21-207); experiment: monovalent affinity, method not stated
T2 construct: also called canine IL-6
T2 sequence (looked up): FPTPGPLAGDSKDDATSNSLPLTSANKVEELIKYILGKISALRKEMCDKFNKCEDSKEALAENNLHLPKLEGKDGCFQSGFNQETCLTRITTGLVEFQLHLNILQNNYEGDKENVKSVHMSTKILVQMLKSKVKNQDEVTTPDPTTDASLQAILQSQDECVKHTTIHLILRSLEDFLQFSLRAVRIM

mouse IL-6 = molecular target: T3, mouse IL-6 (mouse, UniProt P08505 25-211); experiment: monovalent affinity, method not stated
T3 construct: also called rodent IL-6
T3 sequence (looked up): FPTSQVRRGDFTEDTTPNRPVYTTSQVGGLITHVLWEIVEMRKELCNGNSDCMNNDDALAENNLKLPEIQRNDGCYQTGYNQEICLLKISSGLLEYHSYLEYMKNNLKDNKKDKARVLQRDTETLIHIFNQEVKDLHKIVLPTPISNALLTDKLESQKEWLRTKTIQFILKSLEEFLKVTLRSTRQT

rabbit IL-6 = molecular target: T4, rabbit IL-6 (rabbit, UniProt Q9MZR1 27-241, limits assumed); experiment: monovalent affinity, method not stated
T4 sequence (looked up): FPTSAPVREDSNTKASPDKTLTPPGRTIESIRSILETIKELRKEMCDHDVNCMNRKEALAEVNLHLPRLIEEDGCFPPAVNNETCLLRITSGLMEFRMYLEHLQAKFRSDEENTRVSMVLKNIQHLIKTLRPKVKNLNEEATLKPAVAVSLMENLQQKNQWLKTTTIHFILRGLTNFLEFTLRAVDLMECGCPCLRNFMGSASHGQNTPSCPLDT

human IL-6 = molecular target: T5, human IL-6 (human, UniProt P05231 30-212); experiment: yeast system (yeast display, biotinylated human IL-6); original humanized h64, before affinity maturation; yeast system
T5 construct: Recombinant protein was R&D Systems 206-IL/CF where stated; It was biotinylated in the yeast display assays and amine-coupled to the chip in SPR; also called free IL-6; biotinylated human IL-6

Kd (rat IL-6): > 1 µM
Kd (dog IL-6): > 1 µM
Kd (mouse IL-6): > 1 µM
Kd (rabbit IL-6): > 1 µM
B1: 018 Fab (Fab, V domains shown)
VH: QVQLVQSGAEVKKPGSSVKVSCKASGYALSNYLIEWVRQAPGQGLEWMGVITPGSGTINYAQKFQGRVTITADESTSTAYMELSSLRSEDTAVYYCARSRWDPLYYYALEYWGQGTTVTVSS
VL: DIVMTQSPDSLAVSLGERATINCRASESVDNYGIPFMNWYQQKPGQPPKLLIYAASNRGSGVPDRFSGSGSGTDFTLTISSLQAEDVAVYYCQQSEEVPLTFGQGTKLEIKR
notes: Fab with CK and IgG1 CH1 domains; also called Fab fragment of the h64-1.4 humanized antibody

Kd (human IL-6): 0.000343 µM
B2: h64 IgG (humanized 64, human IgG1) (antibody, V domains shown)
VH: B1 VH with L29F
VL: DIVMTQSPDSLAVSLGERATINCRASESVDNYGISFMNWYQQKPGQPPKLLIYAASNQGSGVPDRFSGSGSGTDFTLTISSLQAEDVAVYYCQQSKEVPLTFGQGTKLEIK
notes: Expressed as inline fusions with the human IgG1 constant domains; also called the original humanized molecule; original h64 antibody
